Assay results taken from patent US20120240246A1, “Variant Calpastatins and Variant Calpains for Modulating the Activity or Stability of Calpain” (St. Jude Children's Research Hospital, priority 2009, published 2012).
Residue numbers refer to the chain shown, from its start. In names and notes the source's numbering stands. Each block holds one molecule with its values, some of them ahead of it.

How the values were obtained:
[1] = molecular target: T1, m-calpain (Rattus norvegicus, UniProt Q07009); assay: Calpastatin inhibition assay, hydrolysis by m-calpain; type: biochemical; conditions: for IC50 values toward m-calpain (in words): derived from initial rate analysis
T1 construct: diminishing activity >1,000-fold compared to full-length m-calpain; His6 (C); made in house; host or cells: E. coli
T1 sequence (Q07009 1-700): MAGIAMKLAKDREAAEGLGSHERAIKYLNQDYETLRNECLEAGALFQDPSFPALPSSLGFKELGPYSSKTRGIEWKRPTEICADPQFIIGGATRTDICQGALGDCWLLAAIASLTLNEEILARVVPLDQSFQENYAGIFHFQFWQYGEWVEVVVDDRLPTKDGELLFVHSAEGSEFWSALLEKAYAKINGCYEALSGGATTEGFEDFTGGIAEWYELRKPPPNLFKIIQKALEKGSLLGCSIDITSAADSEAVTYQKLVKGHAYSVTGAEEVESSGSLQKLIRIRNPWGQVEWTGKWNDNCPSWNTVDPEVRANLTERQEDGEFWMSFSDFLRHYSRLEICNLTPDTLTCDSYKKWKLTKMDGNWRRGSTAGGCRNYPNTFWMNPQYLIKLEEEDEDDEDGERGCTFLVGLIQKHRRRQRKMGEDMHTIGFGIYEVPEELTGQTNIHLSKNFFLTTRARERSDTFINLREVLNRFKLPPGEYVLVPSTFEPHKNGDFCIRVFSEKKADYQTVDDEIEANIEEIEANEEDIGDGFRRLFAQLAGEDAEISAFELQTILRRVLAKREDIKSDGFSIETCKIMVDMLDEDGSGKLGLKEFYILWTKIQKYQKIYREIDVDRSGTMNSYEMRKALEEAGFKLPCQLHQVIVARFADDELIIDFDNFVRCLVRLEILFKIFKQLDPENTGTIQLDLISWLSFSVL
T1 sequence (Q64537 87-270 partner limits assumed): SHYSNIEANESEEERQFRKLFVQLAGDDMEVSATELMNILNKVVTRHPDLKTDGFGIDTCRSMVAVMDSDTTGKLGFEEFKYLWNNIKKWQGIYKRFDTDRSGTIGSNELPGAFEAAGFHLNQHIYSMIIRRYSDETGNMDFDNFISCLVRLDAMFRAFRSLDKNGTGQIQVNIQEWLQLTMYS
Experimental: (§1) Calpastatin Inhibition Assays. Hydrolysis assays by m-calpain (1 nM or 20 nM), m-calpain mutants (1 nM) and μI-II (1.25-2.5 μM) were performed in 100-μl volumes containing 50 mM HEPES (pH 7.5), 200 mM NaCl, 1 mM DTT, various concentrations of substrate (0-1.5mM SLY-MCA (Sigma) or 0-50 μg/ml BODIPY-casein (Invitrogen)) and increasing inhibitor concentrations: 0-50 nM wild-type or mutant full-length calpastatin, fragments AB and BC, 0-20 μM peptide B1 for m-calpain, and 0-750 μM peptide B1 for μI-II. Duplicates or triplicates were performed for each condition in 96-well plates using a Molecular Devices microplate reader.

[2] = molecular target: protease core from µ-calpain (µI-II) (UniProt P97571); assay: cell-based or functional assay
[3] = system: calpain; conditions: human sequence; Betts & Anagli (2004); cited from earlier work
[4] = molecular target: T2, μI-II (protease core from μ-calpain) (Rattus norvegicus, UniProt P97571); assay: Calpastatin inhibition assay, hydrolysis by μI-II; type: biochemical; conditions: mean ±s.e.m.
T2 construct: the protease core from μ-calpain (μI-II) were expressed in E. coli; made in house; host or cells: E. coli
Experimental: as §1

[5] = molecular target: calpastatin repeat 1 E177Δ mutant (UniProt P27321)
[6] = molecular target: calpastatin repeat 1 K176/E177Δ mutant (UniProt P27321)
[7] = molecular target: calpastatin repeat 1 K176Δ mutant (UniProt P27321)
[8] = system: m-calpain; assay: Hydrolysis activity of m-calpain mutants at the DI-II-DIII interface; type: biochemical, rat; conditions: Ala substitution in DIII of 80 kDa subunit
Experimental: as §1

[9] = system: heterodimeric calpains; conditions: Wendt, et al. (2004); cited from earlier work
[10] = molecular target: protease core from µ-calpain (µI-II) (UniProt P97571 29-356); assay: cell-based or functional assay
[11] = molecular target: m-calpain (catalytically active heterodimer used in hydrolysis and autolysis assays) (rat), Q07009; assay: cell-based or functional assay

protease core from µ-calpain (µI-II) (UniProt P97571), sequence (P97571 29-356 limits assumed): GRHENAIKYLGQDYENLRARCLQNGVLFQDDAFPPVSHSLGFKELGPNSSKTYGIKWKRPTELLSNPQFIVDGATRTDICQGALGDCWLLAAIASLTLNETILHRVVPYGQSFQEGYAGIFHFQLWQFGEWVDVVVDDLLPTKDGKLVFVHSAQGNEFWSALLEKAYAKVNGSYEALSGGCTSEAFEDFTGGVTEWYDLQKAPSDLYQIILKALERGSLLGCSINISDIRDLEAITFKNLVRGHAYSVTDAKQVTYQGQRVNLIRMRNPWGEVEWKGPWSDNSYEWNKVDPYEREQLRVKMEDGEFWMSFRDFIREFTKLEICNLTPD
T2 sequence (P97571 55-354 limits assumed): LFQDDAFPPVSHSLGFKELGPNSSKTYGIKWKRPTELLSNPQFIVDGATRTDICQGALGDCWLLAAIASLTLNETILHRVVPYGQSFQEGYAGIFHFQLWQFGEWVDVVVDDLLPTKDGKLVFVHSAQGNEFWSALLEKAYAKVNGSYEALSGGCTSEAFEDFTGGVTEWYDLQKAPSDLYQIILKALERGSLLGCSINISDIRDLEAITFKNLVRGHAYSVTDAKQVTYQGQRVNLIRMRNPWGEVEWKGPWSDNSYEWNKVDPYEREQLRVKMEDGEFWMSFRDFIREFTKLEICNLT
protease core from µ-calpain (µI-II) (UniProt P97571 29-356), sequence (P97571 29-356 limits assumed): as the sequence (P97571 29-356 limits assumed) above
calpastatin repeat 1 E177Δ mutant, sequence (P27321 whole entry, looked up, stated change not applied): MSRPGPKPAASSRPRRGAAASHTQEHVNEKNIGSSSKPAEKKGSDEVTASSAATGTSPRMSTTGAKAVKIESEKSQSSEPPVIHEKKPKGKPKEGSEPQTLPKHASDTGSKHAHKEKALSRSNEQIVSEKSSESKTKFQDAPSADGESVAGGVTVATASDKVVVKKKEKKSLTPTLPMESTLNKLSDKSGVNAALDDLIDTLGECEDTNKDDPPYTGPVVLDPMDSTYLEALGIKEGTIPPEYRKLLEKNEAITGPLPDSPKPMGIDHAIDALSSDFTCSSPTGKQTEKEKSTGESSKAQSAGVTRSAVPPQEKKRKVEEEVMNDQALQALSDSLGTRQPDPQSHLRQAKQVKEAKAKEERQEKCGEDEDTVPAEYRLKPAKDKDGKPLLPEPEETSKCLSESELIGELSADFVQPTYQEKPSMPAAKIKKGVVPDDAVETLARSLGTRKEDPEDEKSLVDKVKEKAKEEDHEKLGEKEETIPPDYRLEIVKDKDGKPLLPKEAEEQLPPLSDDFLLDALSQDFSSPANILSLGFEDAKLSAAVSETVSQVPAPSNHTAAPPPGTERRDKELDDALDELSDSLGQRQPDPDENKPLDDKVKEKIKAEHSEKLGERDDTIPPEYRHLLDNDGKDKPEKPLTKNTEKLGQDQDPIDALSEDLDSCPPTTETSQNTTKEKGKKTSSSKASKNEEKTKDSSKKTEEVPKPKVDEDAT
calpastatin repeat 1 K176/E177Δ mutant, sequence (P27321 whole entry, looked up, stated change not applied): as above
calpastatin repeat 1 K176Δ mutant, sequence (P27321 whole entry, looked up, stated change not applied): as above

Molecule: Ac-ALGIKEGTIPPEYRKLLE-NH2 [peptide B1, Ac-ALGIKEGTIPPEYRKLLE-NH2]
IC50 ([1]; mean ±s.e.m.): 0.41 ± 0.08 µM

Molecule: calpastatin repeat 1 fragment AB (57 residues, ending at Lys190) (from UniProt P27321 134-190) (peptide)
IC50 of inhibition of µI-II activity [2]: 80.5 µM

Molecule: Asp^163-Gly^174: N-terminal peptide of the 27-residue region B peptide, human sequence (Betts & Anagli 2004) (TLGGPEETEEEN; UniProt P20810 163-174, looked up, fragment)
calpain inhibition when the intact 27-residue peptide is replaced by N- and C-terminal peptides [3]: abolished

Molecule: m-calpain (catalytically active heterodimer used in hydrolysis and autolysis assays)
autolysis / proteolysis of the complex (SDS-PAGE) [5]: all mutants succumbed to proteolysis within the kink | autolysis / proteolysis of the complex (SDS-PAGE) [6]: all mutants succumbed to proteolysis within the kink | autolysis / proteolysis of the complex (SDS-PAGE) [7]: all mutants succumbed to proteolysis within the kink

B1: R417A: rat m-calpain with R417A substitution in DIII of the 80 kDa subunit (protein, UniProt Q07009 20-700; Q64537 1-270, looked up, variant R417A)
Calpain-2 catalytic subunit: SHERAIKYLNQDYETLRNECLEAGALFQDPSFPALPSSLGFKELGPYSSKTRGIEWKRPTEICADPQFIIGGATRTDICQGALGDCWLLAAIASLTLNEEILARVVPLDQSFQENYAGIFHFQFWQYGEWVEVVVDDRLPTKDGELLFVHSAEGSEFWSALLEKAYAKINGCYEALSGGATTEGFEDFTGGIAEWYELRKPPPNLFKIIQKALEKGSLLGCSIDITSAADSEAVTYQKLVKGHAYSVTGAEEVESSGSLQKLIRIRNPWGQVEWTGKWNDNCPSWNTVDPEVRANLTERQEDGEFWMSFSDFLRHYSRLEICNLTPDTLTCDSYKKWKLTKMDGNWRRGSTAGGCRNYPNTFWMNPQYLIKLEEEDEDDEDGERGCTFLVGLIQKHRARQRKMGEDMHTIGFGIYEVPEELTGQTNIHLSKNFFLTTRARERSDTFINLREVLNRFKLPPGEYVLVPSTFEPHKNGDFCIRVFSEKKADYQTVDDEIEANIEEIEANEEDIGDGFRRLFAQLAGEDAEISAFELQTILRRVLAKREDIKSDGFSIETCKIMVDMLDEDGSGKLGLKEFYILWTKIQKYQKIYREIDVDRSGTMNSYEMRKALEEAGFKLPCQLHQVIVARFADDELIIDFDNFVRCLVRLEILFKIFKQLDPENTGTIQLDLISWLSFSVL
Calpain small subunit 1: MFLVNSFLKGGGGGGGGGGLGGGLGNVLGGLISGAAGGGGGGGGGGGMGLGGGGGGGGTAMRILGGVISAISEAAAQYNPEPPPPRSHYSNIEANESEEERQFRKLFVQLAGDDMEVSATELMNILNKVVTRHPDLKTDGFGIDTCRSMVAVMDSDTTGKLGFEEFKYLWNNIKKWQGIYKRFDTDRSGTIGSNELPGAFEAAGFHLNQHIYSMIIRRYSDETGNMDFDNFISCLVRLDAMFRAFRSLDKNGTGQIQVNIQEWLQLTMYS
m-calpain activity after substitution (fraction of wild type) [8]: one-half

B2: R469A: rat m-calpain with R469A substitution in DIII of the 80 kDa subunit (protein, UniProt Q07009 20-700; Q64537 1-270, looked up, variant R469A)
Calpain-2 catalytic subunit: B1 Calpain-2 catalytic subunit with A398R, R450A
Calpain small subunit 1: B1 Calpain small subunit 1
Ca2+ requirement [8]: doubled | decrease in m-calpain activity [8]: > 60 fold

B3: R420A: rat m-calpain with R420A substitution in DIII of the 80 kDa subunit (protein, UniProt Q07009 20-700; Q64537 1-270, looked up, variant R420A)
Calpain-2 catalytic subunit: B1 Calpain-2 catalytic subunit with A398R, R401A
Calpain small subunit 1: B1 Calpain small subunit 1
Ca2+ requirement [8]: doubled | m-calpain activity after substitution (fraction of wild type) [8]: one-quarter

B5: Peptide B1 Ac-ALGIKEGTIPPEYRKLLE-NH2 (peptide)
peptide: Ac-ALGIKEGTIPPEYRKLLE-NH2
IC50 of inhibition of µI-II activity [10]: 24.5 µM

B6: repeat 1: 86-residue rat calpastatin inhibitory repeat 1 (residues 134-219), expressed in E. coli (protein, UniProt P27321 134-219, looked up, fragment)
chain: SKTKFQDAPSADGESVAGGVTVATASDKVVVKKKEKKSLTPTLPMESTLNKLSDKSGVNAALDDLIDTLGECEDTNKDDPPYTGPV
modifications: inhibitory repeat 1
IC50 values toward m-calpain (in words) [1]: low nanomolar | IC50 [4]: 155 ± 16.3 µM

Second part, led by results:

IC50 of inhibition of µI-II activity [2]: 155 µM
Molecule: rat calpastatin inhibitory repeat 1, short construct Ala134-Thr219 (86 residues) (from UniProt P27321 134-219)

IC50 of inhibition of µI-II activity [2]: 122 µM
Molecule: calpastatin repeat 1 fragment BC (57 residues, Asp163-Thr219) (from UniProt P27321 163-219) (peptide)

IC50 values toward m-calpain (in words) [1]: low nanomolar | IC50 [4]: 80.5 ± 10.2 µM
Molecule: AB: 57-residue calpastatin repeat 1 fragment with regions A and B, ending at Lys190 (SKTKFQDAPSADGESVAGGVTVATASDKVVVKKKEKKSLTPTLPMESTLNKLSDKSG)

inhibition of calpain ([1]; FIG. 7 legend, concerted binding to peripheral domains and active site): low-nanomolar
B4: calpastatin: 72 kDa endogenous calpain inhibitor with L domain and four 15-kDa inhibitory repeats (protein, listed as Rattus norvegicus)
chain: MESTLNKLSDKSGVNAALDDLIDTLGECEDTNKDDPPYTGPVVLDPMDSTYLEALGIKEGTIPPEYRKLLEKNEAITGPLPDSPKPMGIDHAIDALSSDFTCSSPTGKQTEKEKSTGESS
affinity of inhibition of heterodimeric calpains [9]: nanomolar

IC50 of inhibition of substrate hydrolysis by m-calpain [11]: 0.41 µM
B7: Peptide B1 Ac-…-NH2 (peptide)
peptide: Ac-ALGIKEGTIPPEYRKLLE-NH2
